Test [1] deals with T1, human ROR2-hFc fusion protein (extracellular domain) (human, UniProt Q01974 34-403).
T1 construct: extracellular domain; Immobilised by amine coupling; also called hROR2; not shown: human Fc (hFc)
Kind of test: SPR (Pioneer) or BLI (Octet K2); ROR2-hFc extracellular domain amine-coupled. The procedure: (§1) VNARs were genetically fused to engineered hIgG1 Fc domains via standard [G₄S]₃ that contained a cysteine substitution in the hIgG1 Fc sequence, S239C (EU numbering). The VNAR Fc fusion proteins were expressed as secreted protein in CHO K1 cells and purified from the media using MabSelect™ SuRe™ (Evitria, Switzerland). Purified proteins were analysed by SEC (AdvanceBio, Agilent), SDS PAGE and mass spectrometry to confirm sequence and protein integrity. Binding kinetics were determined using a Pioneer Surface Plasmon Resonance (SPR) instrument (SensiQ/Pall ForteBio), or the Biolayer Interferometry (BLI) Octet K2 system (ForteBio). ROR1-hFc or ROR2-hFc fusion proteins (extracelluar domains) were immobilised in sodium acetate pH5 buffer to COOH₂ chips or AR2G sensors using amine coupling. VNARs and VNAR-Fc molecules were tested at various concentrations and the Ka (M⁻¹ s⁻¹), Kd (s⁻¹) and KD (nM) values were determined using QDat software (SensiQ/Pall ForteBio) or Octet Data Analysis High Throughput software (ForteBio) for Biolayer Interferometry.
(In general: Biolayer interferometry detects binding as a change in optical thickness at a sensor tip.)

Test [2] addresses T2, human ROR1-hFc fusion protein (extracellular domain) (human, UniProt Q01973 30-406).
T2 construct: extracellular domain; Immobilised by amine coupling on COOH2 chips or AR2G sensors; also called hROR1; not shown: human Fc (hFc)
Kind of test: SPR (Pioneer) or BLI (Octet K2); ROR1-hFc extracellular domain amine-coupled. On the procedure: as §1

B1: P3A1 hFc(442) (Fc fusion)
chain: TRVDQTPRTATKETGESLTINCVLTDTSYGLYSTSWFRKNPGTTDWERMSIGGRYVESVNKGAKSFSLRIKDLTVADSATYYCKAREARHPWLRQWYDGAGTVLTVNGGGGSGGGGSGGGGS
notes: hIgG1 Fc with S442C (EU); also called P3A1hFc(S442C); not shown: human IgG1 Fc domain
Regarding B1, in test [1], the binding result is reported as “no binding”. For the same molecule, in test [2], binding was characterised by a dissociation constant (Kd) of 0.741 nM; the off-rate (koff) (usually a measure of how fast the partners let go of each other) stood at 0.0002 s⁻¹; the on-rate constant (kon) (in general, a measure of how fast the partners come together) was 270000 M⁻¹ s⁻¹.

B2: P3A1 hFc (Fc fusion)
chain: TRVDQTPRTATKETGESLTINCVLTDTSYGLYSTSWFRKNPGTTDWERMSIGGRYVESVNKGAKSFSLRIKDLTVADSATYYCKAREARHPWLRQWYDGAGTVLTVNGGGGSGGGGSGGGGS
notes: VNAR fused to engineered hIgG1 Fc via [G4S]3; also called P3A1hFc(S239C); not shown: human IgG1 Fc domain
As for B2, in test [1], the binding result is reported as “no binding”. The koff in test [2] came to 0.000564 s⁻¹.

B3: 2V hFc (Fc fusion)
chain: TRVDQTPRTATKETGESLTINCVLTDTSYGLYSTSWFRKNPGTTDWERMSIGGRYVESVNKGAKSFSLRIKDLTVADSATYYCKAQSLAISTRSYWYDGAGTVLTVNGGGGSGGGGSGGGGS
notes: Control VNAR from a naive library, no known target; not shown: human IgG1 Fc domain
As to B3, the binding result in test [1] and in test [2] was “no binding” in each case.

B4: B1V15 hFc (Fc fusion)
chain: ASVTQSPRSASKETGESLTITCRVTGANYGLAATYWYRKNPGSSNQERISISGRYSESVNKRTMSFSLRISSLTVEDSATYYCKAYPWGAGAPWLVQWYDGQGTKLEVKGGGGSGGGGSGGGGS
notes: Humanised B1 variant fused to hFc; not shown: human IgG1 Fc domain
As for B4, the binding result in test [1] is “no binding”. In test [2], the Kd (usually the constant that tells how readily two partners part at equilibrium) turned out to be 0.726 nM, the koff stood at 0.00013 s⁻¹ and the kon stood at 179000 M⁻¹ s⁻¹.

B5: hFc - P3A1 (Fc fusion)
chain: GGGGSGGGGSGGGGSTRVDQTPRTATKETGESLTINCVLTDTSYGLYSTSWFRKNPGTTDWERMSIGGRYVESVNKGAKSFSLRIKDLTVADSATYYCKAREARHPWLRQWYDGAGTVLTVN
notes: VNAR at the C-terminus of the Fc, by the printed name; not shown: human IgG1 Fc domain
On to B5, for which the binding result in test [1] is recorded as “no binding”. In test [2], this molecule yielded a dissociation rate constant (koff) of 0.000776 s⁻¹.

(Values after US20230241072A1 (ALMAC DISCOVERY, published 2023).)
